PMC11489326, “Characterization of lignin-degrading enzyme PmdC, which catalyzes a key step in the synthesis of polymer precursor 2-pyrone-4,6-dicarboxylic acid” (The Journal of Biological Chemistry, 2024)

Molecular target: CHMS dehydrogenase PmdC from Comamonas testosteroni (Comamonas testosteroni)
Assay: SEC; purified PmdC (wild type and mutants) in solution; conditions of the run not told in the text shown (Figs. S5, S12)

stoichiometry N: 2
Substance: CHMS dehydrogenase PmdC from Comamonas testosteroni (enzyme)
